Test: yeast display, Sf9 membrane polyspecificity reagent, FACS + sequencing; frameworks hold sequencing errors
In short: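 Sorting gates, low and high (top ~1%), were placed on anti-HA fluorescence to track expression and on streptavidin fluorescence to track reagent binding. A clone's polyreactivity label is taken from the gate it came out of. The reagent was 10% biotinylated, detergent-solubilized Sf9 membrane, applied for 1 hour at 4 °C to galactose-induced yeast display cells.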

| Sequence | polyreactivity (PSR sort gate) |
| --- | --- |
| QVQLVESGGGLDQAGGSLRLSCAASGSIFRWYAMGWYRQAPGKEREFVAAITSSGGSTYYADSVKGRFTISRDTAKNTVYLQINSVKPEDTAVYYCNRRYQPYSYDYWGEGTQVTVSS | high polyreactivity |
| QVQLVESGGGLDQAGGSLRLSCAASGSIFVHYAMGWYRQAPGKERELVAGITFRGGRTYYADSVKGRFTISRDNAKNTVYLQMNSLKPEDTAVYYCAALYSVRGGYPSSHRIRMEYCGQGTQVTVSS | high polyreactivity |
| QVQLVESGGGLDQAGGSLRLSCAASGSIFYRNAMGWYRKAPGKERELVAAISWSGSRTYYADSVKVRFTISRDNAKNTVYLQMISLKPEDTAVYYCNRQYNQWIHYYYRMDYWGQGNQVTVSS | high polyreactivity |
| QVQLVESGGGLDQAGGSLRLSCAASGSTFDSNTMGRSRQAPGKERELDAAITVSGGSTHYADSVKGRFTISRDNAKNTVYLQMNSLKPEDTAVYYCNRRSYGYGAFSGYDYWGQGTQVTVSS | low polyreactivity |
| QVQLVESGGGLDQAGGSLRLSCAASGSTFDYYARGWYRQAPGKERELVAAISSSGGSTYYADSVKGRFTISRDNANYTVYLQRNSLKPEDTAVYYCNKYGGTLRSDYWGQGTQVTVSS | high polyreactivity |
| QVQLVESGGGLDQAGGSLRLSCAASGSTFKHNAMGWYRQAPAKERVLVAGISWGGSSTYYADSVKGRFTISRDNAKNTVYLQMNSLKPDDTAVYYCAKGGYRRYGYDYWGQGTQVTVSS | low polyreactivity |
| QVQLVESGGGLDQAGGSLRLSCAASGSTFPYYAMGWYRQAPGKERELVARISYRGGRTYYADSVKGRFTISRDNAKNTVYLQMNSLKAEDTAVYYCAADRWVYYHSTRYDYWGQGTQVTVSS | high polyreactivity |
| QVQLVESGGGLDQAGGSLRLSCAASGSTFRNNAMGWYRQAPGKERELVAAISRGGGSTYYADSVKGRFTISRDNAKNNVYLQMTSLKQDDTAVYDCARRPTGIYDYWGQGTQVTVSS | high polyreactivity |
| QVQLVESGGGLDQAGGSLRLSCAASGSTFRYYAMGWYRQAPGKERELVAAINWSGGTTSYADSVKGRFTISRDNAKNTVYLQMNSLKPEDTAVYYCAVPYLYKYSRYDYWGQGTQVTVSS | high polyreactivity |
| QVQLVESGGGLDQAGGSLRLSCAASGSTFTSNAMGWYRQAPGKERELVAAITWSGARTYYADSVKGRFTISRDNAKNTVYLQLNSLKPEDTAVYYCAAYIAGVTGGSGYYYWGQGTQVTVSS | high polyreactivity |
| QVQLVESGGGLDQAGGSLRLSCAASGSTFYDNAMRWYRQAPGKERELVADISSGGRTNYADSVKGRFTISRDNAKNTVYLQMNCLKPEDTAVYYCAARLYVLRWYPYDYWGQGTQVTVSS | low polyreactivity |
| QVQLVESGGGLDQAGGSLRLSCAASGSTLVYNDMGWYRQAPGIEREFVAAIRSNDGSTYYADSVKGRFTISGDNAKNTVYLQMNSLKPEDTAGYYCAVVYGYPYLRGYVYGFNYWGQGTQVTVSS | low polyreactivity |
| QVQLVESGGGLDQAGGSLRLSCAASGYTFLIYAMGWYRQAPGKERELVAAISYRDGRTYYADSVKGRFTISRDNAKNTVYLQMNSLNPEDTAVYYCAATLFYQPYRSYYYWGQGTQVTVSS | high polyreactivity |
| QVQLVESGGGLDQAGGSLRLSCAASGYTFPYYTMGWYRQAPGKESELVATITRRGDSTYYADSVKGRFTISRDNAKNTVYLQMNSLKPEDTAVYYCNTASYGRHHFRKSSKMDYWGQGTQVTVSS | high polyreactivity |
| QVQLVESGGGLDQAGGSLRLSCAASGYVMGWYRQAPGKERELVASITRGTSTYYADSVKGRFTISRDNAKNTVYLQMNSLKPEDTAVYYCAARTTSGEWPPGKIGTYLYDYWGQGTQVTVSS | low polyreactivity |
| QVQLVESGGGLDQAGGSLRLSCADSASTFYRYAKGWSRQAPGKEWELVAAITRTGGSTYADSVKGRFTISRDNAKNTVYLQMNSLKPEDTAVYFCAVQRYFVSSISPFYYWGQGTQVTVSS | low polyreactivity |
| QVQLVESGGGLDQAGGSLRLSCADSGSIFYVYTMGWYRQAPGKERELVAAITSGDGTYYADSVKGRFTISRDNAKSTVYLQMNSLKPEDTAVYYCNADESAYWKLRHGLGSDSWGQGTQVTVSS | low polyreactivity |
| QVQLVESGGGLDQAGGSLRLSCAPSGSTFVGYALGWYRQAPGKERELVAAITRGGGSTYYADSVKGRFTISRDNAKNTVYLQMNSLKPEDTAVYYCAAYQHPGLRTSYEYWGQGTQVTVSS | low polyreactivity |
| QVQLVESGGGLDQAGGSLRLSCDASGGTFLSYAMGWYRQAHGKERELVARINSGSSTYYADSVKGRFTISRDNAKNTVYLQMNSLKPEDTAVYYCATRWVSRTHGYWGQGTQVTVSS | low polyreactivity |
| QVQLVESGGGLDQAGGSLRLSCPASGRTISRNTMGWYRPAPGKERELVAGITYGGDRTYYADSVKGRFTISRDNAKNTVYLQMNSLKPEDTAVYYCAAPWYWKGLRDYWGQGTQVTVSS | low polyreactivity |
| QVQLVESGGGLDQAGGSLRLSCPASGSTFSNYAMGWYRQEPGKERELVAAISVRGGSTYYADSVKGRFTISRDNAKNTVYLQMNSLKPEDTAVYYCNADTDYRDDMDYWGQGTQVTVSS | high polyreactivity |
| QVQLVESGGGLDQAGGSLRLSCSASGITFKSYAMGWYTQSPGKEREVVAAISRRGGSTYYADSVKGRFTISRDNAKNTVYLQMNSLKQEDTAVYFFAADSGREPKGPSRLTYWGQGTQVTVSS | high polyreactivity |

| Sequence | polyreactivity (PSR sort gate) |
| --- | --- |
| QVQLVESGGGLDQAGGSLRLSWAASAFIFGLYAMGWYRQAPGKERELVAAITSVESTKYADSVKGRFTISRDHAKNTVYLQMNSLKPEDTAVYYCATDWSLEDDYWGQGTQVTVSS | low polyreactivity |
| QVQLVESGGGLDQAGGSLRLTCAPYGLISDRNAIGWYRQAPGKERDLVASIRSGGSTYYADSVKGRFTFSRDNAKNTVYLEMNSLKPEDTAVYYCAAGGGHTPVSYYLVPYMDYWGQGTQVTVAS | low polyreactivity |
| QVQLVESGGGLDQAGVRLRLSCAASGRIFISYAMGWYRQAPGNDTELVARISTRGGSTYYADSVKGRFTISRDNAKNTVYLQMNSLKPDDTAVYYCAADHHFCQYPGGGNRWYYYWGQGTHVTVSS | high polyreactivity |
| QVQLVESGGGLDQAGVSLRLSCAATGRIFYHYAMGWYRHEPGKERELVASITTSGDSTYYADSVKGRFTISRDTAKNTVYLQMNSLKPEDTAVYYCAARSYRGSRYDYWGQGTQVTVSS | high polyreactivity |
| QVQLVESGGGLEQAGGRLRLICAASGRTFDRYPMGWYRQAPGKESELVAAITWSGGRTYYADSVKGRFTISRDNAKNTVYLQMNSLKPEDTAVYYCAADNSYRGYHSPYEYWGQGTQVTVSS | low polyreactivity |
| QVQLVESGGGLFEEGGSLRISCAASGRIFAPYAMGWYRHAPGKERELVAAISWSDVSTDYAVSVKGRFTISRDNAKNTVYLQMYSLKPEVTAVYYCAAAYAGYRGWYYYWGQVTQVTVSS | high polyreactivity |
| QVQLVESGGGLFHAGGSLRLSCAASGSTFGGNDMGWSIQAPGKERELVASISDGGRTNYADSVKGRFTISRDNAKNTVYLQMNSLKPEDTAVYYCAADYAPVAFDYWGQGTQVTVSS | low polyreactivity |
| QVQLVESGGGLFHAGGSLRLSCPDSGSTFYRYTMGCYRQAPGKERELVAAITSGGGTDYADSVKARFTISRDNAKNTVYLQLISLKPEDTAVYFCADFLSWRDYYLYWRGSWREDYWGQGTQVTVSS | low polyreactivity |
| QVQLVESGGGLFKAGGSLRLSCAASGFNFSNYAKGWYRQAPGKERELVATISWSGGRTYYADSVKGRFTISRDNAKNTVYLQMNSLKPEDTEVYYCAAEYYTGYFKYDYWGQGTQVTVSS | high polyreactivity |
| QVQLVESGGGLFQAGGILRLSCAASGIIFWDNAMGWYRQAPGKERELVAAISRSGSRTYYADSVKGRFTISRDNAKNTVYLQMNSLKPEDTAVYYCARRYRARGSMYYWGQGTQVTVSS | high polyreactivity |
| QVQLVESGGGLFQAGGRLRLSCAPSGFNFGGYVMGWYRQAPGKDRELVAAISSSGGITHYADSVKGRFTISRDNANNTVYLQMNSLKPEDTEVYYCNALYRKRYYWGQGTQVTVSS | high polyreactivity |
| QVQLVESGGGLFQAGGSHRLSCAASGSTFKQYAMGWYRQAPGKERELVAAIDRGGSTYYADSVKGRFTITRDNAKITVYLQMTSLKPEDTAVYYCAARFVQYRYAYDYWGQGTQVTVSS | low polyreactivity |
| QVQLVESGGGLFQAGGSLRISCAASGRIFTKNTMGWYRQPPWKERELFAAIRSRAGSTYYADSVKGRFTISRDNAKNTVYLQMNSLKPEDTAFYYCAVPWFRSVDFDYWGQGTQVTVSS | low polyreactivity |
| QVQLVESGGGLFQAGGSLRLICAASGSTFRFYAMGWYRQAPAKERELVAVIRSTGSTYYADSVKGRFTISRDNAKNTVYLQMYSLNPDDTAVYYCAAQNAWWSNGRSYDYWGQGTQVTVSS | low polyreactivity |
| QVQLVESGGGLFQAGGSLRLSCAASGFIFRSNAMGGYRHAPGKERELVAAISGGGITYYADSVKGRFTISRDNAKNTVYLQMNSLKPEDTAVYYCAVRWYFKTHWGGYHPYEYCGQGTQVTVSS | high polyreactivity |
| QVQLVESGGGLFQAGGSLRLSCAASGFTFTRYAMGWYRQAPGKERELVATITKRGGSTYYADSVKGRFTISRDNAKNTVYLQMNRLKPEDTAVYYCAADGASRALYDYWGQGTQVTVSS | high polyreactivity |
| QVQLVESGGGLFQAGGSLRLSCAASGGIFDVYDMGWYRQAPGKERELVAAISEKGGSTYYADSVKGRFTISRDNAKNTGYLQMNSLKPEDTAVYYCAADYVCLSVFSYWAWYDYWGQGTQVNVSS | low polyreactivity |
| QVQLVESGGGLFQAGGSLRLSCAASGGIFYGNVMGWYRQAPGKERELVADITSVGSTYYADSVKGRFTISRDNAKNTVYLQMNSLIPEDTAVYYCAAEPDHVADSHSGYDYWGQGTQVTVSS | low polyreactivity |
| QVQLVESGGGLFQAGGSLRLSCAASGIIFTSYAMGWYRQAPGKESEFVAAITRSGSRTYYADSVKGRFTISRDNAKNTVYLQMNRLKPEDTAVYYCAARTYHDSSDSYAGGYWGQGTQVTVSS | low polyreactivity |
| QVQLVESGGGLFQAGGSLRLSCAASGIIFYDYAMGRYRQPPAKERELVAAITSNGDNTYYADSVKWRFTISRDNAKNTVYLQMNILKPEDTAVYYCAVDGSFAADFDNYLEEYGYWGQGTQVTVSS | low polyreactivity |
| QVQLVESGGGLFQAGGSLRLSCAASGITFKGYTMGWYRQAPGKERELVATISRGGRTYADSVKGRFTISRDNAKNTVLLQMNSLKPEDTAVYYCAADKYWAQNDYWGQGTQVTVSS | low polyreactivity |
